# Measurements published in the domain aggregation screens of Martell et al. (2025).
# Test: soluble fraction after stress (log2 fold change); higher = more stays soluble; pooled small domains, quantitative proteomics
# Conditions: stress: pH 4
# Procedure, shortened: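 How much of each domain stays soluble after acid stress, expressed as a fold change, is used to gauge aggregation propensity. Pooled custom libraries of small domains underwent pH 4 stress before high-throughput quantitative proteomics. A higher log2 value means more of the domain stayed soluble.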
row,Sequence,soluble fraction (log2)
1,HMIYQNVINLLKNRLNSSIYNIGDLLPSEKELAEHYDVSRNTLRKALKTLEEEGMIERRHGSGTYLRNK,0.0262
2,HMFLSSEERRERIIEVLRQQDEVTVVELSHRLGVSEVTTRKDLQQLEEQGYLTRVRGGAVVSGRGQL,-0.458
3,HMLLFNPGEVLKGFVLQSGTNNRVLLQIGDSRVIADTQTPLKAGEQLVLRVEETGPKTILQILG,0.0206
4,HMPMDDETWDALSLFAYKRYARENGWPLMIGAEALRDTFASYFPLDSSTWQDRSSHYLTYQDGIYTRT,-0.753
5,HMADQVLVMTRAVGQGDIVRNADIGLTSVAVDRAVATIPASQLDKIVGRHALVDLSPGQLLGSHSVGE,0.107
6,HMRQFEPVEGYNPYADKNELHGYEYWGAKFADSRSPEETAWIKQQIDDENEDRRFISEAGLA,-0.446
7,HMDTNTIIGLRIKALRTEKKYTLKYLSENSGLSIGFLSQLERGMTSVAIDSLDKISKVLDVELSSFFN,-0.65
8,HMKQKAEVIFVSKTIMEALSKGVRLTPENLKSETELPIDDFYARLKELIDNGSVVESRENGESYLEAGN,-0.938
9,HMQLSQLLQPFDINAFKGHPLYTEENVKMFNDYTNRVKEWTKGTPYEQYWVTKEGQPTMLAWDSFKK,-1.07
10,HMTDWNTVEKETLSAIQKVLSGQASWIDLSPADHSIRHMQHEMVQQAGLISQSYGKEPMRRIRIYQNP,-0.036
11,HMNYYYKDNQYWYVGFRYDERLVKEIKRFVGAGYNPENKEWYIPFTLPTVAPLQKWLHDNGFVEGMNYYP,-1.31
12,HMSGKWSILILHALEQGPKRFNVLHRELSGITQATLTKQLRQLEEDGIILRKAYPQIPPKVEYQLTEIG,0.112
13,HMLDLNEVEFYAIENQLKENLKIDSKRFYELVPLIKGYQEDDIIQVLRWLIDNNRIIRHKDESLTWHS,-1.02
14,HMKDYQGNILIQSEGDRIDKFLFKYFNSFSRTKIKNHIINGNILVNDKNTIPAYVLKINDKISYDLSTSVK,-0.877
15,HMNNESEGAIMLRQYSSLSAYLTKYNIDVNSKKAQQYASSLKLAQEKGSAEGQKYLSSISSELDD,0.00542
16,HMNIDEIFLTKNEIYFSFEYQKKSQLDRYSKIISLDHRIDKNTAYAYANKKQFLNFINLNIDYKIIDNSF,-1
17,HMVSTDPVHLFNLGTANRRAGRASEAITSYRKFMEAAPQHPQVPEARAYIHDMEVLLQERQKSEQAASQLS,-0.0261
18,HMRSVLSDEIYLLIRKMIFNYEILPGAKVNIDALAKKLDVSQTPVREALSRLESDGLIVKEPLKGFRATD,-0.239
19,HMRLIALPSVTDISIRQAEATLMSIGIKVSSIQYAPSEYKDLVLEVKYRGQSIIQGAKIPEGSSVVLVAGN,-0.122
20,HMAPAPDEAFAEFVRSSAPSLTRTAWLLTGDRGHAQDLVQNAYAKTLQAWGRLDAEGALAYTRRAVIT,-0.0327
21,HMEVSTRQVRAALRDIIEAEDKKRPLSDEAITARLREQGLPVARRTVAKYREQMGILAARLRK,0.0717
22,HMGATFITSSKDNAINIRQAAGTDSKVIETIKNGHILESSEKSGEWYKVTYYDSDIKKTFTGYIHNSQLK,-0.162
23,HMGESEKTLELVSQKDALVDEAFFFVRFQALLESNKTKGAQDLLDQSNHLSAAKLLQANAYLDIV,0.038
24,HMYLYADIYKKLEEKIKNMEVGEKLPSERAMVQEYGVSRNVLREALVLLSERGLIEIRPGKGSYVTNQQ,-0.177
25,HMSDPELNDNEKKIYDIIFNKKSMDLTELKNLSELSNKQWDKGIKSLSKQDFVKVIKTEEALIVELV,-0.126
26,HMVDKDFKPLYASLERLDSTSIIEILDSNRIDYRIDQRSGALLVDADQIHQARLSLASAGMPA,-0.844
27,HMDSLSGQQGRVLEEINGFLQTGKVLLNGMEWSAVSKQPEDILPVDTEVVVVRVEGAHLVVKKA,-0.488
28,HMIMGTITKRTNPSGAIVYRAQIRIKKAGYPDFSESRTFSKKAMAVEWLKLREAELEMHPELLFR,0.0366
29,HMVLFDLSEREKEVLKLLADGNSYKMIASRLEITYFTVNAHLKKIYEKLQVHSASEAVSVALRNSL,-1.36
30,HMENFSTLFSRLKEERGLSNKQISSFTGAPIKEVKKWESGMGIPTEKRIVAALEGILGSEISKAI,0.353
